Ends that are not written are not given here.

The target of assay [1] is T1, JAK2 WT peptide (JAK2 autophosphorylation site 1001LPQDKEYYKVKEP) (Homo sapiens, UniProt O60674).
T1 construct: made in house; host or cells: chemical synthesis (Fmoc)
The assay is described as follows: ELISA binding of biotinylated JAK2 WT peptide to solid-phase peptides. Particulars: FIG. 1A; ELISA, peptides coated on 96-well plates. The procedure: Binding assays: For ELISA binding assays Tkip and other peptides to be tested were bound to 96-well plates in 0.1 M carbonate binding buffer (pH 9.6) at a final concentration of 3 μg/well (50 μl). Wells were then washed three times with wash buffer containing 0.9% NaCl and 0.05% tween-20 in PBS and blocked with 2% gelatin and 0.05% tween-20 in PBS for 1 h at room temperature. Wells were then washed three times with wash buffer and incubated with various concentrations of biotinylated JAK2 WT peptide and biotinylated P-JAK2 WT peptide for 1 h at room temperature in blocking buffer. Following incubation, wells were washed five times with wash buffer to remove any unbound biotinylated peptides. Bound biotinylated peptides were detected by incubation with a 1:500 dilution of NEUTRAVIDIN biotin binding-protein conjugated with horseradish peroxidase (Molecular Probes, Eugene, Oreg.) in blocking buffer for 1 h at room temperature. Wells were then washed five times with wash buffer and developed with a solution of o-phenylenediamine (OPD) in stable peroxidase buffer (Pierce, Rockford, Ill.). The assay was stopped with the addition of 2 M H2SO4 (50 μl) to each well. Absorbance was measured using a 450 microplate reader (Bio-rad, Hercules, Calif.) at 490 nm. Control experiments were carried out as described above in the absence of immobilized peptides.
(An ELISA detects its analyte on a solid surface through an enzyme-linked reagent.)

For a further assay, the target named is T2, recombinant human JAK2 (Homo sapiens, UniProt O60674).
T2 construct: purchased Upstate Biotechnology, Lake Placid, N.Y
The assay is described as follows: In vitro JAK2 kinase assay (32P, SDS-PAGE, autoradiography). Type of assay: biochemical. Particulars: peptide at 50 μM. The method, then:
Determination of JAK2 autophosphorylation activity was performed in reaction mixtures containing recombinant human JAK2 immobilized on agarose beads (Upstate Biotechnology, Lake Placid, N.Y.), 1 μCi/μl of [^32P]γ-ATP (Amersham Biosciences, Piscataway, N.J.), and either Tkip or JAK 2 WT peptide incubated in kinase buffer (10 mM HEPES [pH 7.4], 50 mM sodium chloride, 0.1 mM sodium orthovanadate, 5 mM magnesium chloride, 5 mM manganese chloride). JAK2 kinase assays were performed in 35 μL reaction volumes containing 10.5 μL Tkip, 20 μL JAK2 agarose beads, 1 μL sIFNGR-1, and 3.5 μL [^32P]γ-ATP incubated at 30° C. for 30 min with intermittent agitation. […] EGFR, VEGFR, and JAK2 kinase reactions were terminated with the addition of 5 μl 6×SDS sample buffer (0.5 M Tris-HCl [pH 6.8], 36% glycerol, 10% SDS, 9.3% DTT, 0.012% bromophenol blue). Incubation of JAK2 agarose beads in SDS sample buffer (100° C.) was designed to elute bound proteins from the agarose beads. The reaction mixtures were separated on a 10% SDS polyacrilamide gel. Autoradiography was used to determine phosphorylation activity.

The subject of assay [2] is biotinylated JAK2 WT peptide binding to Tkip peptide. The assay is described as follows: ELISA peptide competition for biotinylated JAK2 WT binding to Tkip. Set-up: species or system human. To be noted: FIG. 1B; unlabeled competitor peptide. The procedure:
Peptide competition experiments were conducted using peptides derived from the JAK tyrosine kinase family, vascular endothelial growth factor receptor (VEGFR), and cyclin dependent kinase (CDK) to compete with biotinylated JAK2 WT peptide for binding to Tkip. Binding of biotinylated JAK2 WT was determined as above, except that following Tkip peptide immobilization, washing, and blocking in blocking buffer for 1 hr at room temperature unlabeled competitors were added to wells and incubated for 30 min at varying concentrations before biotinylated JAK2 WT peptide was incubated for 1 hr in each well to determine the extent of competition with unlabeled peptides. Detection and analysis of binding was carried out as described above.

Assay [3] has as its system MHC class I expression on WISH cells. The assay is described as follows: Flow cytometry of IFN-γ induced MHC class I expression on WISH cells. It is filed as cell-based, human. The procedure: Flow Cytometry: WISH fibroblast cells (2×10^6) were incubated for 48 h with media alone, 25 μM MuIFNγ(95–125) peptide, or lipophilic Tkip (LT) at varying concentrations (1 μM, 10 μM, 25 μM) in the presence or absence of 5000 units/ml IFN-γ in 6-well culture plates at 37° C. in a 5% CO2 atmosphere. Following incubation, cells were washed twice with PBS and harvested by trypsinization into two sets of 5-ml round bottom polystyrene tubes (Fisher, Pittsburgh, Pa.) and washed twice with PBS. For cell surface staining a direct immunofluorescence protocol was employed. […] The fluorescent-conjugated isotype antibody was used to determine background fluorescence by identifying nonspecific binding of the monoclonal antibody to WISH cells. […] WISH fibroblast cells were finally resuspended in 500 μl of PBS and analyzed on a FACScan fluorescence-activated cell sorter (Becton Dickinson, San Jose, Calif.). […] The red fluorescence of R-PE was excited at 488 nm. […] The fluorescence intensity of the negative controls were subtracted from the mean fluorescence for the R-PE labeled cells. […] Flow cytometry data were analyzed using CellQuest analysis software (Becton Dickinson, San Jose, Calif.).

T2 sequence (O60674 whole entry): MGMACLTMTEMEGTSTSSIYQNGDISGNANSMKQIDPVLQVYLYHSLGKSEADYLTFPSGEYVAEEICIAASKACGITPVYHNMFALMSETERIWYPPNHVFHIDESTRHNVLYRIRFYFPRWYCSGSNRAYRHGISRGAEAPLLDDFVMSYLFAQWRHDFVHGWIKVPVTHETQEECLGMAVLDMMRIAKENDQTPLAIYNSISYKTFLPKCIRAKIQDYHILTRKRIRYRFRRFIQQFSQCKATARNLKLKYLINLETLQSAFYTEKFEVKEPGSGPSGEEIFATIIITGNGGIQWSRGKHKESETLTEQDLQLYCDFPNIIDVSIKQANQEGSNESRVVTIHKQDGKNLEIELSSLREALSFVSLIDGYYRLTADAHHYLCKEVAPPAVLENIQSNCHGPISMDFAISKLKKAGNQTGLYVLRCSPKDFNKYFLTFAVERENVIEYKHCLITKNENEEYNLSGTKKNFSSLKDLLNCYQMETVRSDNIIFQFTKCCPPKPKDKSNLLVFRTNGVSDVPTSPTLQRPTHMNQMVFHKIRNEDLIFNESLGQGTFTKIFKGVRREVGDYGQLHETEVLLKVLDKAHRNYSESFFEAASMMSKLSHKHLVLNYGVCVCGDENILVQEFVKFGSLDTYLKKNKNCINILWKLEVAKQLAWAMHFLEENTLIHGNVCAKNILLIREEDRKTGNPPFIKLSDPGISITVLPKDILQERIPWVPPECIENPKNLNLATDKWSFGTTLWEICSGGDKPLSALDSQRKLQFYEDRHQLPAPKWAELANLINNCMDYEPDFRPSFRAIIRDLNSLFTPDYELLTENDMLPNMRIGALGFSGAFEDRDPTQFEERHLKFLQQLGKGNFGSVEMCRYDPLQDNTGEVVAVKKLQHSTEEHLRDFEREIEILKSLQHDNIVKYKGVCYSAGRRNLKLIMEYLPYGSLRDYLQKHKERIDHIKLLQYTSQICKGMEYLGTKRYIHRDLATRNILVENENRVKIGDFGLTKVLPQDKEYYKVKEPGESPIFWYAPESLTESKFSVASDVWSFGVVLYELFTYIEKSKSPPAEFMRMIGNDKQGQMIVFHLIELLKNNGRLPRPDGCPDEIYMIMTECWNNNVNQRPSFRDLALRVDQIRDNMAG

Turning to “AKFEVNNPQVQRQAFNELIRVVHQLLPESSL (amino acid sequence of a peptide used for control purposes) [IFN-γ95–125]”, the “binding of biotinylated JAK2 WT peptide to solid-phase peptide” value (“binding of biotinylated JAK2 WT peptide” below) in assay [1] is “negligible”.

In the case of “EMLVLLMALKLLA (amino acid sequence of a peptide that can be used according to the present invention)”, the “inhibition of JAK2 autophosphorylation” value in the assay with recombinant human JAK2 is on record as “inhibited autophosphorylation of JAK2 (lane 7 of FIG. 4, upper panel), although it was not as effective as the Tkip peptide”.

For “KTEGVPSTAIREISLLKELNH (amino acid sequence of a peptide used for control purposes) [CDK 41–61, cyclin-dependent kinase, cyclin box peptide 41–61]”, the “binding of biotinylated JAK2 WT peptide” value in assay [1] is reported as “negligible”. In assay [2], the “inhibition of biotinylated JAK2 WT peptide binding to Tkip peptide” value (“inhibition … to Tkip peptide” for short) was “neither CDK 41–61 nor VEGFR 1208–1222, inhibited”.

On to “LPQDKEYYKVKEP (amino acid sequence of a peptide used for control purposes) [JAK2 WT, JAK2 autophosphorylation site peptide, residues 1001-1013; control peptide, reference compound]”, for which, in assay [2], the “inhibition … to Tkip peptide” value was “inhibited”. In the assay with recombinant human JAK2, the “inhibition of JAK2 autophosphorylation” value is “had no effect” and the “inhibition of JAK2 phosphorylation of IFNGR-1” value is given as “had no effect”.

For the substance “NGVLFLMIFHFLG (amino acid sequence of a peptide that can be used according to the present invention)”, the “inhibition of JAK2 phosphorylation of IFNGR-1” value in the assay with recombinant human JAK2 is recorded as “did inhibit”.

As to “SSDVRYVNAFKFM (amino acid sequence of a peptide used for control purposes) [VEGFR 1208–1222, vascular endothelial growth factor receptor autophosphorylation peptide]”, in assay [1], the “binding of biotinylated JAK2 WT peptide” value is given as “negligible”. In addition, the “inhibition … to Tkip peptide” value in assay [2] is given as “neither CDK 41–61 nor VEGFR 1208–1222, inhibited”.

With “control lipophilic peptide (IFN-γ 95–125): lipophilic irrelevant peptide MuIFN-γ(95–125) (AKFEVNNPQVQRQAFNELIRVVHQLLPESSL; also: lipophilic group, site not given here; UniProt P01580 117-147, looked up, fragment) [reference compound]”, the “effect on IFN-γ upregulation of MHC class I expression” value in assay [3] (10 μM or 25 μM Tkip (control 25 μM), 5000 U/ml human IFN-γ, 48 h) is “had no effect”.

As to “human IFN-γ: human gamma interferon cytokine used as stimulus”, the “increase in MHC class I as per FACS analysis” value in assay [3] (5000 U/ml) is on record as “over 3 fold”.

The record behind these values is US7189694B2, “Inhibitors of autophosphorylation protein kinases” (University of Florida Research Foundation, Inc., priority 2003, dated 2007).
